Experimental data from IntAct's records for PubMed 22404908.

B1: Rho-related GTP-binding protein RhoD (Homo sapiens), O00212 (parent)
chain: MTAAQAAGEEAPPGVRSVKVVLVGDGGCGKTSLLMVFADGAFPESYTPTVFERYMVNLQVKGKPVHLHIWDTAGQDDYDRLRPLFYPDASVLLLCFDVTSPNSFDNIFNRWYPEVNHFCKKVPIIVVGCKTDLRKDKSLVNKLRRNGLEPVTYHRGQEMARSVGAVAYLECSARLHDNVHAVFQEAAEVALSSRGRNFWRRITQGFCVVT

Variants of: B1
Details: with plxb1_human PLXNB1, O43157
Sequence of plxb1_human PLXNB1, O43157 (O43157 whole entry): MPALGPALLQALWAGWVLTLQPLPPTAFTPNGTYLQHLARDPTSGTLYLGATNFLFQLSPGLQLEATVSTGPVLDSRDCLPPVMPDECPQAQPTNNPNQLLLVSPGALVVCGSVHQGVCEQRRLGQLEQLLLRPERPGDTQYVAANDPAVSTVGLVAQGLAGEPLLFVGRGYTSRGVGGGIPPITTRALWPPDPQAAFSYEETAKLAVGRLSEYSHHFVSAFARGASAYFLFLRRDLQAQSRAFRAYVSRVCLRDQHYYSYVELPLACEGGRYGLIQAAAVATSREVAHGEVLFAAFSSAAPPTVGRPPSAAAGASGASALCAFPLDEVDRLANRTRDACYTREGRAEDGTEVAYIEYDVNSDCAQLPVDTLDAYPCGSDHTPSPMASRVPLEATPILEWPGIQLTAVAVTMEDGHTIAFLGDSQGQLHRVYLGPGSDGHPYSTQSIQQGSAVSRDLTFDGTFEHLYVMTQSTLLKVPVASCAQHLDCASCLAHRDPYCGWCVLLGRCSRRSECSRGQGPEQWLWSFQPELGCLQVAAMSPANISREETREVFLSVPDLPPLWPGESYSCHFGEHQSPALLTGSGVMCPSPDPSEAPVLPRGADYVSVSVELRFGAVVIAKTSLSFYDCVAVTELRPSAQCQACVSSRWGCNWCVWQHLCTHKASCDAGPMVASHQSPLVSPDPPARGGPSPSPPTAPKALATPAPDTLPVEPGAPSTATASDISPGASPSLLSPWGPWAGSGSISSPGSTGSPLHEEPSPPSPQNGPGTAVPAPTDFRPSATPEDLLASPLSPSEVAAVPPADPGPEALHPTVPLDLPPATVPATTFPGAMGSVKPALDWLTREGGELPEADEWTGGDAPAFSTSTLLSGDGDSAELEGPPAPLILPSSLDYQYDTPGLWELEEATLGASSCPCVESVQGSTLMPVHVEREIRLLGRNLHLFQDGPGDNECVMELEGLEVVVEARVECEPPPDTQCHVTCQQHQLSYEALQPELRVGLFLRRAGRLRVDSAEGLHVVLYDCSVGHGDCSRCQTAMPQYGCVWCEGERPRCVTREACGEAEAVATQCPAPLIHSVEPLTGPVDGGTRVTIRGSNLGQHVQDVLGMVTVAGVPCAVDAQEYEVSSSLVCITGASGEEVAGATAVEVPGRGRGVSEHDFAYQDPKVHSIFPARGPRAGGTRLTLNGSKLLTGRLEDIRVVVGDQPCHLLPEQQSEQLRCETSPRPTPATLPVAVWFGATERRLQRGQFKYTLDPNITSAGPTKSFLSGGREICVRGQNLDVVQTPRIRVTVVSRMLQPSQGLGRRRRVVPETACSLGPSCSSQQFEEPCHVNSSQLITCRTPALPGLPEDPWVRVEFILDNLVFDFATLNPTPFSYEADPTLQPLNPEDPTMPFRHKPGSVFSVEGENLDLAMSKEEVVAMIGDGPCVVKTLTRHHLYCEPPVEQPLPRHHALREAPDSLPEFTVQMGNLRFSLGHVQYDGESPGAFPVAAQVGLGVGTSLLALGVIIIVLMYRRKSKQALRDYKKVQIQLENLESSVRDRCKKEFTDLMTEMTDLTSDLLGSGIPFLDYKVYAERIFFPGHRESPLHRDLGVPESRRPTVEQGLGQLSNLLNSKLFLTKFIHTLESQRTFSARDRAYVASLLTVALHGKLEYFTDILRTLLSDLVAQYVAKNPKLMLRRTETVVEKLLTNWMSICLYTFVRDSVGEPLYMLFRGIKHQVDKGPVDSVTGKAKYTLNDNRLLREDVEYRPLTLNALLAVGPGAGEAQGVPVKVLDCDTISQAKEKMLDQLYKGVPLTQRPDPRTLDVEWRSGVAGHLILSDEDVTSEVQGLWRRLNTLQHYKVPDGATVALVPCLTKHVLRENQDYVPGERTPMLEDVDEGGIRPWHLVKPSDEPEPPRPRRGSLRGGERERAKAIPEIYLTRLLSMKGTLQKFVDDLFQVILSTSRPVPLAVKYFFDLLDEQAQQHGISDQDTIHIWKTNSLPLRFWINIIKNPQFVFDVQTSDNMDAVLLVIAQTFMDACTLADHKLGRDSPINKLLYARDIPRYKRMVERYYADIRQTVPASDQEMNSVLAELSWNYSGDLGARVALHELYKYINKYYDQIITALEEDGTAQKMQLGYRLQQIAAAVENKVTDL

effect of a mutation on the interaction | Variant
disrupting interaction | T31K
